Square brackets hold non-standard residues; d marks the D form. Ends that are not written are not given here. pT = C[C@@H](OP(=O)(O)O)[C@H](N)C(=O)O
Key:
Bub1^289–359–Bub3 = target: T1, Bub1^289–359–Bub3 (Saccharomyces cerevisiae, UniProt P26449+P41695); assay: ITC binding of MELT peptides to Bub1^289–359–Bub3 (wild type); details: 25°C, 20 mM Tris pH7.5, 150 mM NaCl, 1 mM DTE, complex 30 µM in cell, peptide 400 µM
T1 construct: S. cerevisiae Bub1^289–359 and for full length Bub3; GST (N, cleaved yes); made in house; host or cells: E. coli BL21 DE3 plysS
T1 sequence (P26449 1-341): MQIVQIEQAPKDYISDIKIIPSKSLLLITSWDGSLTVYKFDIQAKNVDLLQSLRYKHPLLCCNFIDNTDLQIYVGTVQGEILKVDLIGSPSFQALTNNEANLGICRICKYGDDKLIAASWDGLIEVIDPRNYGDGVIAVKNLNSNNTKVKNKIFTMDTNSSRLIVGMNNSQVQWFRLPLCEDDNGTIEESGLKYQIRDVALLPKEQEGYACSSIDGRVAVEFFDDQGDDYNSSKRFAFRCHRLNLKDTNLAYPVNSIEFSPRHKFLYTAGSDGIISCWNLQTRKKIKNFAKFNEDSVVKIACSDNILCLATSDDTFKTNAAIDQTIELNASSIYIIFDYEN
T1 sequence (P41695 289-359): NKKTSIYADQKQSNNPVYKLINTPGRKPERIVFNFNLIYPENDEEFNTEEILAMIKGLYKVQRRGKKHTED
Excerpt: We generated recombinant ScBub1^289–359–Bub3 (where the Bub1 segment is equivalent to the minimal kinetochore targeting region of human Bub1 [[Krenn et al., 2012]]) by bacterial co-expression and purified it to homogeneity (Figure 1D). To assess whether Bub1–Bub3 binds directly to MELT^P sequences, we tested its ability to bind MELT sequences in quantitative isothermal titration calorimetry (ITC) binding experiments. 19-residue synthetic peptides encompassing the sequences of the second and fourth MELT^P motifs of Spc105/Knl1 (indicated as MELT2 and MELT4, respectively), each flanked by four and eleven residues on the N- and C-terminal ends, respectively, were tested (Figure 1C). […] Thus, ScBub1^289–359–Bub3 is sufficient for the reconstitution of tight interactions with two MELT^P peptides in vitro that recapitulate a salient feature of this interaction, its dependency on phosphorylation.
cDNA sequences coding for S. cerevisiae Bub1^289–359 and for full length Bub3 were subcloned in the first and second cassettes of pGEX-6P-2rbs vector ([Ciferri et al., 2005]). In this construct, the cDNA encoding Bub1^289–359 was sub-cloned in frame with the gene encoding GST and a cleavage site for PreScission protease, and was translated from the first ribosome-binding site (rbs). Untagged Bub3 was subcloned downstream of the second rbs in the same vector. Expression was carried out in BL21 DE3 plysS cells in LB medium by auto-induction with 0.3% lactose at 18°C for approximately 16 hr. Cells were harvested by centrifugation and resuspended in Buffer A (20 mM Tris pH 7.5, 300 mM NaCl, 10% Glycerol, 1 mM DTE, 1 mM EDTA pH 8.0, 1 mM PMSF) typically at a dilution of 3 ml lysis buffer per ml of bacterial pellet. Cells were lysed by sonication, and the lysates were cleared by centrifugation at 75000 × g for 45 min. The resulting clear supernatant was incubated with gentle rotation with 1/50 (vol/vol) of GSH-sepharose slurry (GE Healthcare) for 1–2 hr at 4°C. Beads were washed with 150 vol of Buffer A. To elute the Bub1–Bub3 complex from beads, GST-PreScission protease (0.02 mg/mg of protein target) was added for 16 hr at 4°C. The eluate was concentrated on Amicon Ultra Centrifugal Filters MwCO 3000 (Merck Millipore, Billerica, MA) and further purified by size exclusion chromatography (SEC) on a Superdex 75 16/60 column using GF buffer (20 mM Tris pH 7.5, 150 mM NaCl, 1 mM DTE). The complex eluted in a single peak with apparently stoichiometric amounts of Bub1^289–359 and Bub3 and was subsequently concentrated to ∼10 mg/ml for crystallization or to 2–4 mg/ml for ITC experiments. […]
Binding isotherm was measured at 25°C by isothermal titration calorimetry on a MicroCal ITC200 device (GE Healthcare, Piscataway, NJ). […]

Bub1^289–359–R314A–Bub3 = target: T2, Bub1^289–359–R314A–Bub3 (Saccharomyces cerevisiae, UniProt P26449+P41695, R314A); assay type: binding; details: ITC; Bub3-Bub1^R314A mutant compared to wild type Bub3–Bub1; MELT4^P: data not shown
T2 construct: S. cerevisiae Bub1^289–359 and for full length Bub3; ITC experiment with the MELT2^P peptide and the Bub1^289–359–R314A–Bub3 complex; GST (N, cleaved yes); made in house; host or cells: E. coli BL21 DE3 plysS
Excerpt: Such function of Bub1 is probably exerted primarily through its structuring effects on the 4-stranded β-sheet ‘roof’ that dominates the peptide-binding region of Bub3 and which restrains the position of the positively charged residues in the ‘north’ area of the MELT^P-binding site (Figure 4E). Additionally, we observe that Arg314^Bub1, in the β1-β2 loop, contributes to the interaction with the phosphate group of P-Thr172^Spc105/Knl1 (the interaction, however, is only observed in one of the two complexes in the asymmetric unit, and in proximity of a crystal contact) and is therefore directly engaged in the interaction with the MELT2^P peptide. In ITC measurements, we observed a ∼fourfold reduction in the binding affinity of the Bub3-Bub1^R314A mutant for the MELT2^P peptide, in agreement with a role of Arg314^Bub1 is in the interaction of the Bub1-Bub3 complex with MELT2^P (Figure 4F). Similarly, Bub3–Bub1^R314A bound the MELT4^P with ∼threefold decreased affinity compared to wild type Bub3–Bub1 (data not shown).
Binding isotherm was measured at 25°C by isothermal titration calorimetry on a MicroCal ITC200 device (GE Healthcare, Piscataway, NJ). All samples were extensively dialysed into fresh GF buffer (20 mM Tris pH7.5, 150 mM NaCl, 1 mM DTE). […]

[1] = target: ScBub1^289–359–Bub3 complex (S. cerevisiae) (UniProt P41695); assay: ITC; 25°C, MicroCal ITC200; 20 mM Tris pH7.5, 150 mM NaCl, 1 mM DTE; Bub1^289–359–Bub3 in the cell at 30 µM, titrated with thirty-five 2-µl injections of peptide at 400 µM; single-site binding model
[2] = target: T3, Bub1^289–359–R314A–Bub3 complex (S. cerevisiae, UniProt P41695 289-359; P26449 1-341, R314A); assay: ITC; data not shown; method taken from the sentence before it (ITC measurements); details: both partners purified
T3 construct: Bub3, S. cerevisiae, full length; Probably GST-tagged on Bub1 and cleaved as the wild type; also called Bub3-Bub1^R314A mutant; Bub3–Bub1^R314A
T3 sequence (looked up) 1: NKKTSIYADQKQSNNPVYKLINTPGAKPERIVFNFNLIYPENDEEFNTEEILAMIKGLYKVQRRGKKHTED
T3 sequence (looked up) 2: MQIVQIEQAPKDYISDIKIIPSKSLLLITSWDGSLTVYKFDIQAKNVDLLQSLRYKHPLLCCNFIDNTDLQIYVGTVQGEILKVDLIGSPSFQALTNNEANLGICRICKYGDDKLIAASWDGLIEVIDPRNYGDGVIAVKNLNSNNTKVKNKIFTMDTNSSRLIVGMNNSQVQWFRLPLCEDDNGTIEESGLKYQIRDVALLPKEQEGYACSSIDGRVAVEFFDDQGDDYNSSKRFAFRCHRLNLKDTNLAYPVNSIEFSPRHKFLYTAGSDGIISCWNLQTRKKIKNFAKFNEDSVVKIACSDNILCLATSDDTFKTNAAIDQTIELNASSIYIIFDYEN

Bub3 (S. cerevisiae) = target: T4, Bub3 (S. cerevisiae) (S. cerevisiae, UniProt P26449 1-341); assay: ITC; 25°C, MicroCal ITC200; 20 mM Tris pH7.5, 150 mM NaCl, 1 mM DTE; Bub1^289–359–Bub3 in the cell at 30 µM, titrated with thirty-five 2-µl injections of peptide at 400 µM; single-site binding model; details: both partners purified
T4 construct: Bub3, S. cerevisiae, full length (7-bladed WD40 beta-propeller); The methods tell the construct only for Bub3 co-expressed with Bub1; also called ScBub3; purified Bub3; source: Bub3 alone: purified, expression not described
T4 sequence (looked up): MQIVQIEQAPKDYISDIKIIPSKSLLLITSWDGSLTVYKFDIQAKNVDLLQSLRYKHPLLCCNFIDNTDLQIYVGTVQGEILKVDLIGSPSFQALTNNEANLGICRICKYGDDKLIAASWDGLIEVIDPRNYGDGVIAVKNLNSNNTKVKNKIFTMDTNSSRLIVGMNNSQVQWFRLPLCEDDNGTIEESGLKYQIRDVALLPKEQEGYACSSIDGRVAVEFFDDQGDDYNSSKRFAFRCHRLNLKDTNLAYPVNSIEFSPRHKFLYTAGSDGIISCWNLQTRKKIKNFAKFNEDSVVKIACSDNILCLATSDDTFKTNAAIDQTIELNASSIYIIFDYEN

[3] = target: T3, Bub1^289–359–R314A–Bub3 complex; assay: as above; details: both partners purified
[4] = target: T5, Bub1^289–359–Bub3^R217A complex (S. cerevisiae, UniProt P41695 289-359; P26449 1-341, R217A); assay: as above; details: both partners purified
T5 construct: Bub3, S. cerevisiae, full length, with R217A; also called R217A mutant; source: expressed and purified essentially like the wild type complex (E. coli, GSH-sepharose, PreScission cleavage, SEC)
T5 sequence (looked up) 1: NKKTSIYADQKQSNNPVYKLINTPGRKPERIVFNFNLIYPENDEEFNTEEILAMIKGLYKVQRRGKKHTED
T5 sequence (looked up) 2: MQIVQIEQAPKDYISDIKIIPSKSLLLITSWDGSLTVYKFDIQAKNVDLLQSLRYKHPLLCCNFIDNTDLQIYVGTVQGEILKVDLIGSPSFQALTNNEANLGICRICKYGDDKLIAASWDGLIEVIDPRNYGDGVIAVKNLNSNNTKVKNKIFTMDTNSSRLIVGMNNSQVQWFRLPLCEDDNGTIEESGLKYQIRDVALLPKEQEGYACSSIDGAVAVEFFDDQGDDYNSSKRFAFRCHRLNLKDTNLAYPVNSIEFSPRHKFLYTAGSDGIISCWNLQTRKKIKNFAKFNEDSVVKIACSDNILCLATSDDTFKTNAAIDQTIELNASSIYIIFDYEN

[5] = target: T6, Bub1^289–359–Bub3^R239A complex (S. cerevisiae, UniProt P41695 289-359; P26449 1-341, R239A); assay: as above; details: both partners purified
T6 construct: Bub3, S. cerevisiae, full length, with R239A; also called R239A mutant; source: expressed and purified essentially like the wild type complex (E. coli, GSH-sepharose, PreScission cleavage, SEC)
T6 sequence (looked up) 1: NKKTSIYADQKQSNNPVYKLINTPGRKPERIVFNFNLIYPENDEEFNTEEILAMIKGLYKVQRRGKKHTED
T6 sequence (looked up) 2: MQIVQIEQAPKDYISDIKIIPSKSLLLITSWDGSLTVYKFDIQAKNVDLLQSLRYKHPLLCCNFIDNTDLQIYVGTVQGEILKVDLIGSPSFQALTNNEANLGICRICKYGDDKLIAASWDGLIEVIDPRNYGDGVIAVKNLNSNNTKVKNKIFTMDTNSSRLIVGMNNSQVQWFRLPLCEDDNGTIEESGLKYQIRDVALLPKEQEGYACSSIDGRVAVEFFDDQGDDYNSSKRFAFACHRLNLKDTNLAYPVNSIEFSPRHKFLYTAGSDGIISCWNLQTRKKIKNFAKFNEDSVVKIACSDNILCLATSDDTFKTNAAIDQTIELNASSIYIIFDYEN

[6] = target: T7, Bub1^289–359–R314A–Bub3 complex (S. cerevisiae, UniProt P41695 289-359; P26449 1-341, R314A); assay: ITC
T7 sequence 1: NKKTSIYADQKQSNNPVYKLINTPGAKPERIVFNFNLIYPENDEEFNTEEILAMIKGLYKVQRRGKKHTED
T7 sequence 2: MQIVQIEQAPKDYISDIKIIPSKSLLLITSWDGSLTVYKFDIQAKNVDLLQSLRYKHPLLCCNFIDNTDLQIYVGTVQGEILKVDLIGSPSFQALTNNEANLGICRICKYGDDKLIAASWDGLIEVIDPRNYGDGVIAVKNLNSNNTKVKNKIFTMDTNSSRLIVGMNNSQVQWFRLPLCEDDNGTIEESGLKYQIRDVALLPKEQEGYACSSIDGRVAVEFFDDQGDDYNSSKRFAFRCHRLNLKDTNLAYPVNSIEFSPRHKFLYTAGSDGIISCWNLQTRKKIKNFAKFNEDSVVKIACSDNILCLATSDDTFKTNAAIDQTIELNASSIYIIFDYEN

DTVEGEPIDL{PTHR}EYESKPYVPN [MELT4^P]
binding (in words) (Bub1^289–359–Bub3): no binding | fold reduction in binding affinity (Bub1^289–359–R314A–Bub3): threefold

GGGPA{pTHR}PKKAKKL [H1^P, Histone H1-derived phosphorylated peptide GGGPA{pTHR}PKKAKKL, AnaSpec catalog number 61741, reference compound]
binding (in words) (Bub1^289–359–Bub3): No binding | binding (in words) (Bub1^289–359–Bub3; listed as unrelated phospho-peptide): did not show any binding affinity

MELT2^P peptide (phosphorylated second MELT repeat of Spc105/Knl1)
Kd [1]: 0.2 µM

MELT4^P peptide (phosphorylated fourth MELT repeat of Spc105/Knl1)
Kd [1]: 1.3 µM

B1: MELT4^P peptide (phosphorylated fourth MELT repeat of Spc105/Knl1) (peptide)
peptide: DTVEGEPIDL[pT]EYESKPYVPN
notes: Spc105/Knl1, S. cerevisiae, fourth MELT repeat; also called fourth MELT^P peptide; source: synthetic peptide, custom made by GeneScript (95% purity)
fold decrease in affinity against wild type Bub3–Bub1 [2]: ~3 fold

B2: MELT2^P peptide (phosphorylated second MELT repeat of Spc105/Knl1) (peptide)
peptide: DPTSMEM[pT]EVFPRSIRQKN
notes: Spc105/Knl1, S. cerevisiae, second MELT repeat with four residues before and eleven after; Met169, Glu170, Met171, P-Thr172, Phe175 are the printed numbers; The end groups are told only for the peptide used for crystallisation; also called MELT^P peptide; Spc105/Knl1 phosphopeptide; source: synthetic peptide, custom made by GeneScript (95% purity)
Kd (Bub3 (S. cerevisiae)): 2 µM | fold reduction in binding affinity against wild type Bub1^289–359–Bub3 [3]: ~4 fold | Kd [4]: 2.7 µM | Kd [5]: 5 µM

DPTSMEM[pT]EVFPRSIRQKN (not fully specified)
Kd [6]: 0.79 µM

Source: article PMC3779320, “Bub3 reads phosphorylated MELT repeats to promote spindle assembly checkpoint signaling” (eLife, 2013)
